# Data from patent US20030054411A1, “GPR motifs and uses thereof” (priority 2001, published 2003).
# B1: AGS3: Activator of G-protein Signalling 3; bioactive 74 amino acid fragment isolated in yeast screen, tested as GST fusion (protein)
# chain: MLIKYQSSRIDDQRCPPPDVLPRGPTMPDEDFFSLIQRVQAKRMDEQRVDLAGSPDQEASGLPDPRQQCPPGAS
# modifications: left off: a dimerising Fc or GST
# Legend:
# Giα2 = target: T1, Giα2 (Homo sapiens, UniProt P04899); assay: GTPγS binding assay, Giα2; type: biochemical; details: AGS proteins
# T1 construct: made in house; host or cells: Sf9 insect cells
# T1 sequence (P04899 whole entry): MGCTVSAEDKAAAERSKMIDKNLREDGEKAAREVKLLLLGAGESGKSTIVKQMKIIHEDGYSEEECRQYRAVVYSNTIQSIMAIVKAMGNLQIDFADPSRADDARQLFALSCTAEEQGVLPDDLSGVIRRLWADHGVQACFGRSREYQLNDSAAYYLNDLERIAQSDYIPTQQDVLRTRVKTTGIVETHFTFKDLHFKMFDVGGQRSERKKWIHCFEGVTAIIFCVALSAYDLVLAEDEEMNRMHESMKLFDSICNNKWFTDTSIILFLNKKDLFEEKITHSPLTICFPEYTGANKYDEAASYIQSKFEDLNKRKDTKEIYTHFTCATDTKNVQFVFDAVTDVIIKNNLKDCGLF
# Procedure: (§1) A and B, the carboxyl region of AGS3 (Pro^463-Ser^650) containing all four GPR repeats was generated as a His-tagged (A) or GST fusion (B) protein for protein interaction assays as described under Examples. All interactions were done in the presence of 10 μM GDP, and the input lanes represent one-tenth of the G-protein used in each interaction assay. A, Giα1 (75 nM) was incubated with 300 nM His-tagged AGS3-GPR in the absence and presence of increasing amounts of the GPR peptide, after which bound Giα was isolated on a nickel affinity matrix, and samples were processed for immunoblotting with Giα antisera. The blot in the upper panel of A was stripped and reprobed with AGS3 antisera to provide internal controls for protein loading. B, Giα2 (75 nM) was incubated with 300 nM AGS3-GPR or GST in the presence and absence of 100 μM GPR consensus peptide, GPR peptide Q15A, or GPR peptide R23F. The immunoblots presented in A and B are representative of three experiments. C and D, GTPγ^35S binding to G-proteins (100 nM) was measured in the absence and presence of peptides as described in the Examples. Data are expressed as the percent of specific binding (˜5 pmol) observed in the absence of peptide and represent the means±S.E. derived from three experiments. The concentration of peptides in D is 10 μM.
# GTPγS Binding Assays—GTPγS binding assays were generally conducted as described (39). G-proteins (100 nM) were preincubated for 20 min at 24° C. in the presence and absence of GPR peptides. Binding assays (duplicate determinations) were initiated by addition of 0.5 μM GTPγS (4.0×10^4 dpm/pmol), and incubations (total volume=50 μl) were continued for 30 min at 24° C. Both preincubations and GTPγS binding assays were conducted in binding buffer containing 2 mM MgCl2. Reactions were terminated by rapid filtration through nitrocellulose filters with 4×4-ml washes of stop buffer (50 mM Tris-HCl, 5 mM MgCl2, 1 mM EDTA, pH 7.4, at 4° C.). Radioactivity bound to the filters was determined by liquid scintillation counting. Nonspecific binding was defined by 100 μM […].
# brain G-protein = assay: GTPγS binding assay, brain G-protein; type: biochemical, bovine; details: AGS proteins
# Procedure: as §1, with “The immunoblots presented in A and B are representative of three experiments.” left out, “The concentration of peptides in D is 10 μM.” left out
# GTPγS Binding Assays—GTPγS binding assays were generally conducted as described (39). […] Radioactivity bound to the filters was determined by liquid scintillation counting. […]
# [1] = test system: pheromone response pathway; assay: Yeast expression cloning system, growth assay; type: cell-based, Saccharomyces cerevisiae; details: for activity in the presence of Giα2 G204A mutant or RGS4: G204A Giα2 strain or RGS4 overexpression; for growth in yeast expression cloning system: Giα2 yeast strain, selective medium; for function in null Ste5 genetic background: yeast strain lacking Ste5
# Excerpt: (A) Three cDNA clones (#34, #37 and #53) were isolated from a screen of 1.1×10^6 yeast transformants based upon their ability to promote growth in a galactose-dependent manner in the yeast expression cloning system (5). B) Analysis of the cDNA clones in spot growth assays using yeast strains lacking STE20, STE5 or STE4. Control (Non-induced/no selection)—glucose media lacking uracil and tryptophan (UT). Non-induced/selection—glucose media lacking uracil/tryptophan/histidine (UTH) and containing the histidine analog aminotriazole (AT) at 1 mM. Induced/selection—galactose media lacking UTH and containing 1 mM AT. WT—wild type strain CY1316/1183. cDNA #34 was active in the absence of a functional STE5 and thus was not evaluated (black circles in key) in yeast strains lacking STE4 or STE20. For spot growth assays, ˜2,000 cells suspended in water were spotted on appropriate medium and the plates were incubated at 30° for 2 days prior to photography. Experiments in (A, B) were repeated three times with similar results.
# (A) Bioactivity of cDNA #37 and 53 in yeast strains expressing different Gα subunits. The Gpa1, Giα2Gpa1(1-41), Giα3Gpa1(1-41) and Gα16Gpa1(1-41) yeast strains expressed similar amounts of G-protein as determined by immunoblotting with Gpa1-specific antisera. Each series of experiments include data obtained in the absence of Gα to indicate the signal obtained when the action of Gβγ is not limited by reformation of heterotrimer. Data are presented as the mean±S.E.M of three experiments with duplicate determinations. (B) Interaction of AGS2 and AGS3 with G-proteins. AGS2 and the bioactive AGS3 peptide (74 amino acids) beginning at the first in frame methionine were generated as GST-fusion proteins in bacteria and purified using a glutathione affinity matrix. AGS2 and AGS3 GST fusion proteins were incubated with G-protein subunits (Gα=60-80 nM, Gβγ=40 nM, fusion protein=˜300 nM, total volume=250 ul) for 12 hrs at 4° C. GDP=10 uM. GTPγS=10 uM plus 5 mM MgCl2. Proteins were then adsorbed to glutathione matrix and retained G-protein subunits identified by immunoblotting following gel electrophoresis. Giα2 was generated in Sf9 cells as an amino terminal his6-tagged protein and was detected on membrane transfers using anti-Xpress antisera (Invitrogen). Bovine brain Gβγ was detected on membrane transfers with Gβ antisera. Input refers to 20 ul of the incubation mixture. The results presented are representative of four separate experiments. […] C) Effect of G204A Giα2 substitution and RGS4 on the functionality of AGS proteins. The G204A Giα2 yeast strain and the system used for over expression of RGS4 are described in detail in reference 5. Protein expression was confirmed by immunoblotting. AGS 1 was discovered in a similar screen using a human liver cDNA library (5, 7). WT—wild type strain CY1316/1183 containing Giα2 as described for the original yeast screen. RGS4 was overexpressed in the CY1316/1183 yeast strain. Similar results were obtained in three experiments.
# Generation and screening of cDNA libraries. The NG108-15 cell line was propagated as previously described (4). mRNA was prepared from twenty 100 mm confluent plates of cells and used to generate a cDNA library in the yeast expression vector pYES2. The library was constructed by standard procedures using reagents from Stratagene. Analysis of individual transformants indicated cDNA inserts ranging from 400 to 3000 nt with ˜70-80% of the transformants containing cDNA inserts. The primary transformants were then amplified by solid phase agarose growth for 48 hr and plasmid DNA isolated by column fractionation (Qiagen). The NG108-15 cDNA library was then screened for activators of the pheromone response pathway as described (5). We used a his3 far1 yeast strain containing a genomic integration of the FUS1p-HIS3 reporter construct and lacking both the native pheromone response receptor Ste3 and Gpa1 Gα subunit. […]
Molecule,effect on GTPγ35S binding to Giα2 (Giα2),effect on GTPγ35S binding to heterotrimeric brain G-protein (brain G-protein),activity in the presence of Giα2 G204A mutant or RGS4 [1],growth in yeast expression cloning system [1],function in null Ste5 genetic background [1],activity in yeast strains lacking Ste20 or Ste4 [1]
"AGS2: Activator of G-protein Signalling 2, protein identical to mouse Tctex1, isolated from NG108-15 cDNA library",did not alter,did not alter,still active,promoted growth in a galactose-dependent manner,did not function,inactive
B1,did not alter,did not alter,still active,promoted growth in a galactose-dependent manner,did not function,inactive
